The text below walks through data of publication PMC5933747 (PLoS ONE, 2018).

Experiment [1] addresses T1, human NaV1.7 (Homo sapiens, UniProt Q15858). The experiment is described as follows: 125I-ProTx-II radioligand binding to live HEK293 cells stably expressing human NaV1.7. The note with it: 0.5 nM 125I-ProTx-II, 3 h, increasing concentrations of cold peptide.
In experiment [2] the target is T1, human NaV1.7.
For experiment [3], the target named is T1, human NaV1.7. This is another data set of the same source.
Another experiment addresses wild-type NaV1.5 (Homo sapiens, UniProt Q14524).
The target of experiment [4] is T1, human NaV1.7. The source holds these as a separate data set.

Where only a bound is given, the exact number is not on record here.

T1 sequence (Q15858 whole entry): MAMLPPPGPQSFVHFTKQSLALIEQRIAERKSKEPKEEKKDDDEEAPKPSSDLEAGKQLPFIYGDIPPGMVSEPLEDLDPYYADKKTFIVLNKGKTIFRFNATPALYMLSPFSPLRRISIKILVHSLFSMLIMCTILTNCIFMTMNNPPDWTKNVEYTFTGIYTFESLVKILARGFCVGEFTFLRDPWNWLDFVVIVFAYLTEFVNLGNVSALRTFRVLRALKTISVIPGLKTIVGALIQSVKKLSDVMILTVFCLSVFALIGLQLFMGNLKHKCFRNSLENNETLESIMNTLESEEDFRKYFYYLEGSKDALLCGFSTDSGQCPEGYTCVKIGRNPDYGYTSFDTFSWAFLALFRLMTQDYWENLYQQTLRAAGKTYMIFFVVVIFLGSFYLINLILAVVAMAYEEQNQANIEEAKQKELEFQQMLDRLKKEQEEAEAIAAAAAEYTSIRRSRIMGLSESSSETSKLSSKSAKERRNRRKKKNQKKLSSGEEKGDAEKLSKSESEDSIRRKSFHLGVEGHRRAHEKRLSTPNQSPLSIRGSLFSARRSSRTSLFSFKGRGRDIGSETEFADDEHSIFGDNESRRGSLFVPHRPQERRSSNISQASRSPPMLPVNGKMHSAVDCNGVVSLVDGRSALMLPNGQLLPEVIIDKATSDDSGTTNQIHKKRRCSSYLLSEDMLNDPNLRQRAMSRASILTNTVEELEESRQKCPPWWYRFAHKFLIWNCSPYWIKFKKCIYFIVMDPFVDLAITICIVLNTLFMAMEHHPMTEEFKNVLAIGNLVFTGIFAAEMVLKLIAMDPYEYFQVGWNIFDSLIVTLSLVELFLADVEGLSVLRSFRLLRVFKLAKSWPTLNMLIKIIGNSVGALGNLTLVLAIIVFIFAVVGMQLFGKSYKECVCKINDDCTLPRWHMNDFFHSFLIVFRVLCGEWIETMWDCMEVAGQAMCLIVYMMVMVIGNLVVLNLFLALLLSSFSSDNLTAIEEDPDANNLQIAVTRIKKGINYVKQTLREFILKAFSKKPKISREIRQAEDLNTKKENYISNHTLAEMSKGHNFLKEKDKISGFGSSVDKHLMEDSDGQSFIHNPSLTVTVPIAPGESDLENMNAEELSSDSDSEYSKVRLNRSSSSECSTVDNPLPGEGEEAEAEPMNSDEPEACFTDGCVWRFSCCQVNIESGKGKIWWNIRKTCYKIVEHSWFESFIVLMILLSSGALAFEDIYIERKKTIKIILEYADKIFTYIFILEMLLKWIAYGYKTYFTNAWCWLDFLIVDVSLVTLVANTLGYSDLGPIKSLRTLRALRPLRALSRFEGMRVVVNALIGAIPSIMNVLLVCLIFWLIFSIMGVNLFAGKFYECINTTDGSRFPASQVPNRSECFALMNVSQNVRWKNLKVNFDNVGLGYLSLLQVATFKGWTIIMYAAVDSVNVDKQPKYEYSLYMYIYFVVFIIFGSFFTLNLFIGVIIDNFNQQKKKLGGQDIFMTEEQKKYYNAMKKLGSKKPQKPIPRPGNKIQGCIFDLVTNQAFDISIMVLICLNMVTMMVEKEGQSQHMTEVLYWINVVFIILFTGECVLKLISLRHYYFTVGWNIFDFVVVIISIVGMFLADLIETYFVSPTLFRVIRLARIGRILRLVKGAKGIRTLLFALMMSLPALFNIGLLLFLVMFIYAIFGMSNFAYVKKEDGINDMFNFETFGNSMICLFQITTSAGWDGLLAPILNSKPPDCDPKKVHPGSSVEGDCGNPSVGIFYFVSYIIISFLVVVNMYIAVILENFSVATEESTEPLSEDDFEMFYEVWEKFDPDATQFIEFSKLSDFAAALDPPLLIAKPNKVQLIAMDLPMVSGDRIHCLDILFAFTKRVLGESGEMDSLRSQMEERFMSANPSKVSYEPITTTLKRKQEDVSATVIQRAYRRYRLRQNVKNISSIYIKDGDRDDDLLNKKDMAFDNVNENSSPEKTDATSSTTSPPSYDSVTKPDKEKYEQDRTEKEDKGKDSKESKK
wild-type NaV1.5, sequence (Q14524 whole entry): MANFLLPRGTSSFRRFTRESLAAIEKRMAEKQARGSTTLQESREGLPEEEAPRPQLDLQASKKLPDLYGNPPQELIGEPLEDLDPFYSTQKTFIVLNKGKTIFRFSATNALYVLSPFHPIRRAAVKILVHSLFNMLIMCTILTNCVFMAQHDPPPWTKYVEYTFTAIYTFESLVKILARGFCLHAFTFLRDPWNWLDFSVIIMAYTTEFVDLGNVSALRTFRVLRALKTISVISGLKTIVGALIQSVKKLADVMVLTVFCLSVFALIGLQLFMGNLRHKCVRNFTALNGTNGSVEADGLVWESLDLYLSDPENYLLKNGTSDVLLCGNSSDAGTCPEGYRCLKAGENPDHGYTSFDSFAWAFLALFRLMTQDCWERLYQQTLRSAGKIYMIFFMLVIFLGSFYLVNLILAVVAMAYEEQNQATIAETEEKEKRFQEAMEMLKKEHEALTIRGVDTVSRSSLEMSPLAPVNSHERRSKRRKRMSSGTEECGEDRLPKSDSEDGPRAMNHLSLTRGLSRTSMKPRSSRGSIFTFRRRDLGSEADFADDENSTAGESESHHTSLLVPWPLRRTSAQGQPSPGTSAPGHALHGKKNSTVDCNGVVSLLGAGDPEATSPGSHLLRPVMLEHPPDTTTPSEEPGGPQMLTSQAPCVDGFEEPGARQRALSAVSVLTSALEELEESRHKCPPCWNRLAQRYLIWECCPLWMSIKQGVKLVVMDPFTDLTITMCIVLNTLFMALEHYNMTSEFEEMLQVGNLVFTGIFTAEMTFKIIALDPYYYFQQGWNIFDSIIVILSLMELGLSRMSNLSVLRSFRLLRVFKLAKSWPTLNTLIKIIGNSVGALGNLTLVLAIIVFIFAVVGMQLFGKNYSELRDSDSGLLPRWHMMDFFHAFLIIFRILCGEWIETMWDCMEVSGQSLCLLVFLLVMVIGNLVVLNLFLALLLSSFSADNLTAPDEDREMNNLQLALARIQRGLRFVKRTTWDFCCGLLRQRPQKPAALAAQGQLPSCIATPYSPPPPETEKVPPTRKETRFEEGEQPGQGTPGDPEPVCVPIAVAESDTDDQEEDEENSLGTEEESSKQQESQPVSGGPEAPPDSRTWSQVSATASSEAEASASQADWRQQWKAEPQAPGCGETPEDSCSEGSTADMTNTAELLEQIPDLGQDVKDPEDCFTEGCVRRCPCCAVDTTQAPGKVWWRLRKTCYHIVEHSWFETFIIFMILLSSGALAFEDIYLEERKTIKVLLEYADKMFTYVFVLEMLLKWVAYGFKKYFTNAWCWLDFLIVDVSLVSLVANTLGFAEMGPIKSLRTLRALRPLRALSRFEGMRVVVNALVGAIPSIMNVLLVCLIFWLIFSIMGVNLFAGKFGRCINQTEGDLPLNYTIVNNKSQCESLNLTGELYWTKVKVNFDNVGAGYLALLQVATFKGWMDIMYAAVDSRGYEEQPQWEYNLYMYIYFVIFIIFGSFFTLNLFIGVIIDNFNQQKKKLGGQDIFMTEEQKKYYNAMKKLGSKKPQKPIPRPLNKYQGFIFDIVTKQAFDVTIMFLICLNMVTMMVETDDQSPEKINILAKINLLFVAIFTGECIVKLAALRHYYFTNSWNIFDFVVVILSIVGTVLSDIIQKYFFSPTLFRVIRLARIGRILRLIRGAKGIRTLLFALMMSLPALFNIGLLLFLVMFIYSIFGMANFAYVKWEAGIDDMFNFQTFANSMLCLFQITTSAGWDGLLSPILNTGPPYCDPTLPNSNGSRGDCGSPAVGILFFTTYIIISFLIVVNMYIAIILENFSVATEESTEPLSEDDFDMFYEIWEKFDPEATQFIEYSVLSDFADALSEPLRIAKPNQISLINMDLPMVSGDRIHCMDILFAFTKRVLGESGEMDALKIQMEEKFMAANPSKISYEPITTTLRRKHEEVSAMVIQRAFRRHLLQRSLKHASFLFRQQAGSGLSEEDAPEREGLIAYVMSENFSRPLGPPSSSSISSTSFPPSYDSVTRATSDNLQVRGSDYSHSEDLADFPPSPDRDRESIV

As to “HwTx-IV (ECLEIFKACNPSNDQCCKSSKLVCSRKTRWCKYQIGK)”, the “competition for 125I-ProTx-II binding” value with human NaV1.7 [1] is “competed”.
Take Pra-[Nle6;Glu28]JzTx-V(1–29) (peptide): the NaV1.7 IC50 (nM), block of human NaV1.7 current, PatchXpress (PX) platform in the experiment with human NaV1.7 [2] came out at 0.5 nM. The IC50 of block of wild-type NaV1.7, IWQ platform (chimera panel) with human NaV1.7 [3] turned out to be 50 nM. For the same substance, in the experiment with wild-type NaV1.5, the IC50 of block of wild-type NaV1.5, IWQ platform (chimera panel) is > 3000 nM. In the experiment with human NaV1.7 [4], this substance had an IC50 of block of human NaV1.7, manual patch clamp, voltage protocol with 20% of NaV channels inactivated of 0.58 nM.
